Laboratory results taken from US8202696 (MAX PLANCK GESELLSCHAFT ZUR FORDERUNG DER WISSENSCHAFTEN E V, dated 2012).
Blank lines part the entries; values can stand above or below the binder they belong to.

B1: MID1 B-box 1 (residues 110-165), yeast two-hybrid bait (other)
chain: TMTSAEKVLCQFCDQDPAQDAVKTCVTCEVSYCDECLKATHPNKKPFTGHRLIEPI
notes: also called BB1; isolated B-Box1; not shown: two-hybrid fusion partner; not described
B2: α4 protein, full-length, in the yeast two-hybrid system (other, human, UniProt P78318 2-339, looked up)
chain: AAEDELQLPRLPELFETGRQLLDEVEVATEPAGSRIVQEKVFKGLDLLEKAAEMLSQLDLFSRNEDLEEIASTDLKYLLVPAFQGALTMKQVNPSKRLDHLQRAREHFINYLTQCHCYHVAEFELPKTMNNSAENHTANSSMAYPSLVAMASQRQAKIQRYKQKKELEHRLSAMKSAVESGQADDERVREYYLLHLQRWIDISLEEIESIDQEIKILRERDSSREASTSNSSRQERPPVKPFILTRNMAQAKVFGAGYPSLPTMTVSDWYEQHRKYGALPDQGIAKAAPEEFRKAAQQQEEQEEKEEEDDEQTLHRAREWDDWKDTHPRGYGNRQNMG
notes: mature; also called alpha4; IGBP1 gene product; not shown: two-hybrid fusion partner

What was measured:
[1] = target: B2; assay: yeast two-hybrid, comparison of the α4-affinities of MID1 peptides
PARKIN = target: T1, PARKIN (UniProt O60260 1-465, limits assumed); assay: yeast two-hybrid, growth on his- leu- trp- plate
T1 construct: Two-hybrid fusion protein; fusion partner not described

HHARI = target: T2, HHARI (UniProt Q9Y4X5 1-557, limits assumed); assay: yeast two-hybrid, growth on his- leu- trp- plate
T2 construct: Two-hybrid fusion protein; fusion partner not described

[2] = target: B1; assay: yeast two-hybrid, deletion studies with α4 (preliminary data)
[3] = target: T3, endogenous α4 of the transfected human cell lines (HeLa, U373MG) (UniProt P78318 2-339); assay: cell-based or functional assay
T3 sequence (looked up): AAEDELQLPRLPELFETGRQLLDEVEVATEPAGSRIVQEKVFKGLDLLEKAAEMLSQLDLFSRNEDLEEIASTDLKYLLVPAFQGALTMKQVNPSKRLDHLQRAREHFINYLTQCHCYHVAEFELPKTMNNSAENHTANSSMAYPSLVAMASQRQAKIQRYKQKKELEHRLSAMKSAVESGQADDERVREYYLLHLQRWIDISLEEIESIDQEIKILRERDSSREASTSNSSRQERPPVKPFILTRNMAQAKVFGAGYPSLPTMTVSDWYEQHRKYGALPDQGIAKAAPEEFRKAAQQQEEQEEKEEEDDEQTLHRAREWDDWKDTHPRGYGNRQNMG

T2 sequence (Q9Y4X5 whole entry, the tested form may be a part): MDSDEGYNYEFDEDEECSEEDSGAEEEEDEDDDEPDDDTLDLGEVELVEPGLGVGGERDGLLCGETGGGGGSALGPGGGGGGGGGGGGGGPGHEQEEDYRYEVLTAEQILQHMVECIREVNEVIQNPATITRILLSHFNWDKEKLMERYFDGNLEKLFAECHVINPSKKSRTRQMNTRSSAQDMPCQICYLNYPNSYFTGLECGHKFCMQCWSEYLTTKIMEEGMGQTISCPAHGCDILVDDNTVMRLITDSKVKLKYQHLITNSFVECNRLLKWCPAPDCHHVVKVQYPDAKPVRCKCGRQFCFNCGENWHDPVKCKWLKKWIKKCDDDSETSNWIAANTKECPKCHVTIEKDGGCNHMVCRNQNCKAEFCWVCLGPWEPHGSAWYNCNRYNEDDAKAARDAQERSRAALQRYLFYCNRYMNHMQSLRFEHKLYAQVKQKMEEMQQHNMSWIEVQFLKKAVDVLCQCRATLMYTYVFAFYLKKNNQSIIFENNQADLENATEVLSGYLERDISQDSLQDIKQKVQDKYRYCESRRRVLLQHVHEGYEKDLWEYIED
T1 sequence (O60260 whole entry, the tested form may be a part): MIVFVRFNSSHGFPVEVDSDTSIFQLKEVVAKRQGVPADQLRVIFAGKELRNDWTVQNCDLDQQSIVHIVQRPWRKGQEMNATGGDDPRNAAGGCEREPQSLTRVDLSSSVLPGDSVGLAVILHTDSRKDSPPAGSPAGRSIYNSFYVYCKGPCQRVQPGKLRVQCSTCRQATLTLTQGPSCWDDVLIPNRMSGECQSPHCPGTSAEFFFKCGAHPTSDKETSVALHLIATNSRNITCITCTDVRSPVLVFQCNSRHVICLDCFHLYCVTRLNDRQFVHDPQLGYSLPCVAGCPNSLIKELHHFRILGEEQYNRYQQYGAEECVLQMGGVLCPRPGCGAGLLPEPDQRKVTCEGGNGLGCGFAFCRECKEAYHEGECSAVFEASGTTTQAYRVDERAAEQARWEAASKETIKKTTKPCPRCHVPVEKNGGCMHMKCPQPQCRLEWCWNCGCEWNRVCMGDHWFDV

Binder: B1
fold increase of affinity for α4 compared to the full length MID1 protein [1]: 10 fold

Binder: B2
binding result (PARKIN): no binding
binding result (HHARI): no binding

strength of interaction relative to full-length α4 [2]: > 10 times
B3: small part of α4 (44 amino acids), yeast two-hybrid deletion construct (peptide)
peptide: ERPPVKPFILTRNMAQAKVFGAGYPSLPTMTVSDWYEQHRKYGA
notes: The range 236-279 is inferred from the equal length of 44 residues; also called peptidic fragment of α4

ratio between phosphorylated and dephosphorylated hFused-form (western blot) [3]: 3 ratio
ratio between phosphorylated and dephosphorylated hFused-form (western blot, repeat) [3]: 3 ratio
B4: myc-tagged B-box 1 of the MID1 protein (peptide, not shown: small tags and cut ends)
peptide: TMTSAEKVLCQFCDQDPAQDAVKTCVTCEVSYCDECLKATHPNKKPFTGHRLIEPIPD
